{
  "source": "paper PMC6339873",
  "about": "(Frontiers in Microbiology, 2018)",
  "molecules": {"B1": {"name": "S. Typhi YfdX, residues 10-186 (st_YfdX), wild type (domain or fragment)", "chain": "MAATNMTDNVTLNNDKISGQAWQAMRDIGMSRFELFNGRTQKAEQLAAQAEKLLNDDSTDWNLYVKSDKKAPVEGDHYIRINSSITVAEDYLPAGQKNDAINKANQKMKEGDKKGTIEALKLAGVSVIENQELIPLQQTRKDVTTALSLMNEGKYYQAGLLLKSAQDGIVVDSQSVQLEHHHHHH"}, "B2": {"name": "K. pneumoniae YfdX (kp_YfdX), recombinant (natural protein)", "chain": "ATDSATAAPAAAATTQVQKEAADVLQVAVQGANAMRDIQFARLALFHGQPDSAKKLTDDAAALLAADDASWAKFVKTDAKAKMIADRYVIINASIALSEDYVATPEKESAIQSANEKLAKGDQKGAIDTLRLAGIGVIENQYLMPLNQTRKAVAQSQELLKAGKYYEANLVLKGAEEGIVVDSEMLVAGN", "notes": "YfdX of Klebsiella pneumoniae; Cloned into pET21a; PDB 3DZA (cited) holds a crystal structure of the same protein"}},
  "key": {"[1]": {"biological_target": "st_YfdX(YI), S. Typhi YfdX with Y100A and I137A (Salmonella enterica serovar Typhi)", "assay": "[…]; pH 6.0; […] (pH 6.0), 200 mM NaCl, 1 mM DTT, […]"}, "[2]": {"biological_target": "st_YfdX(YI), S. Typhi YfdX with Y100A and I137A (Salmonella enterica serovar Typhi)", "assay": "[…]; pH 7.5; […] (pH 7.5), 200 mM NaCl, 1 mM DTT, […]"}, "[3]": {"biological_target": "the molecule itself", "assay": "[…]; pH 7.5; […] (pH 7.5), 200 mM NaCl, 1 mM DTT, […]"}, "[4]": {"biological_target": "the molecule itself", "assay": "crystal structure; sitting-drop vapor diffusion at 18°C; crystal I and II at pH 4.6 (F222), crystal III at pH 5.0 (P222); crystals II and III from protein with 1 mM ZnCl2; the tetramer is seen in the crystal lattice"}, "[5]": {"biological_target": "the molecule itself", "assay": "SEC-MALS; pH 10.0 (kp_YfdX, Supplementary Figure S1)"}, "[6]": {"biological_target": "the molecule itself", "assay": "SEC-MALS; Superdex 75 Increase 10/300 GL; pH 6.0; st_YfdX proteins in 20 mM Bis-Tris-HCl (pH 6.0), 200 mM NaCl, 1 mM DTT, wild type at 10 and 30 mg/mL, mutants at 30 mg/mL; buffer and concentration of kp_YfdX not told"}},
  "data": [
    {"molecule": "st_YfdX(YI), S. Typhi YfdX with Y100A and I137A (domain or fragment)", "values": [
      {"measurement": "stoichiometry N", "setting": "[1]", "result": 2},
      {"measurement": "stoichiometry N", "setting": "[2]", "result": 2}
    ]},
    {"molecule": "B1", "values": [
      {"measurement": "stoichiometry N", "setting": "[3]", "result": 2},
      {"measurement": "stoichiometry N", "setting": "[4]", "result": 4}
    ]},
    {"molecule": "B2", "values": [
      {"measurement": "stoichiometry N", "setting": "[5]", "result": 2},
      {"measurement": "stoichiometry N", "setting": "[6]", "result": 4}
    ]}
  ]
}
